The target of the test is T1, wild-type glycoprotein B (gB) of HSV-1(F) (Herpes simplex virus 1 (HSV-1(F)), UniProt P06436 30-903).
T1 construct: whole, on cells; also called wild-type gB
In words: flow cytometry on infected 293T cells, PE-labeled anti-human IgG secondary antibody. For orientation: Flow cytometry measures light scatter and fluorescence of single cells or particles in a stream.

From patent US20130115589A1 (UNIVERSITY OF TOKYO, published 2013) come the findings set out here.

B1: NMHC-IIArod-Ig (fusion protein of the C terminal fragment of NMHC-IIA and Ig) (Fc fusion)
chain: LAQAKENEKKLKSMEAEMIQLQEELAAAERAKRQAQQERDELADEIANSSGKGALALEEKRRLEARIAQLEEELEEEQGNTELINDRLKKANLQIDQINTDLNLERSHAQKNENARQQLERQNKELKVKLQEMEGTVKSKYKASITALEAKIAQLEEQLDNETKERQAACKQVRRTEKKLKDVLLQVDDERRNAEQYKDQADKASTRLKQLKRQLEEAEEEAQRANASRRKLQRELEDATETADAMNREVSSLKNKLRRGDLPFVVPRRMARKGAGDGSDEEVDGKADGAEAKPAE
notes: also called soluble C-terminal fragment of NMHC-IIA; soluble form of NMHC-IIA
Take B1: the binding result was “binds”.
